Reference: the supplement of paper PMC10201428
± gives the standard deviation of the averaged measurements.

Experiments:
[1] = tested on: VchCAST RNA-guided transposition machinery (E. coli BL21(DE3) host, lacZ target); test: relative integration efficiency (T-LR orientation) vs wild-type transposon end (log2 (normalized fold change)); transposon end mutated: left end; higher = more efficient transposition
How it was run: (§1)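 Relative integration efficiency is a fold change of output over input barcode abundance, normalised to reference barcodes and log-transformed. Input plasmids and genomic integration junctions were PCR-amplified and Illumina-sequenced from E. coli BL21(DE3) co-transformed with a T7-driven effector plasmid and pUC57 donor pools of 1549 left-end or 1849 right-end transposon variants. Plating was done with 0.1 mM IPTG at 37°C for 18 h, with two biological output replicates and four reference barcodes.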

[2] = tested on: VchCAST RNA-guided transposition machinery (E. coli BL21(DE3) host, lacZ target); test: relative integration efficiency (T-RL orientation) vs wild-type transposon end (log2 (normalized fold change)); transposon end mutated: left end; higher = more efficient transposition
How it was run: as §1

Row | Sequence | relative integration efficiency (log2) [1] | relative integration efficiency (log2) [2]
1 | AATGTTGTTGATGCAACCATAAAGTGATCGGGCCGCCGGCGGGCGCCGACTACCAGGCCAACACCCCACCAACGCGCGGTCGCGAGACACCCCACCAACGCCTGGTCGCGGGGGTGTCCGATCTGATTTCAGCAAAACTACTGCAGTAAGAA | -7.44 ± 0.81 | -8.26 ± 1.7
2 | AATGTTGTTGATGCAACCATAAAGTGATATTTAATAATTATTTATAATCAACCATATATTGATATCTCACAAAACAACCATAAGTTGATATTTTTGTGAATCGAGTATTTCAGCAAAACTACTGCAGTAAGAAAGTTACTTCGTGGTATGGG | -4.56 ± 2.6 | -6.16 ± 1.6
3 | AATGTTGTTGATGCAACCATAAAGTGATATTTAATCAACCATATATTGATATCTCACAAAACAACCATAAGTTGATATTTTTGTGAATCGAGTATTTCAGCAAAACTACTGCAGTAAGAAAGTTACTTCGTGGTATGGGAGGATCAAGGAGC | -0.405 ± 1 | -3.38 ± 1.4
4 | AATGTTGTTGATGCAACCATAAAGTGATATTTATTTATGGCTAGCTCAGTCCTAGGTACAATGCTAGCAACCATATATTGATATCTCACAAAACAACCATAAGTTGATATTTTTGTGAATCGAGTATTTCAGCAAAACTACTGCAGTAAGAA | -2.71 ± 0.58 | -4.66 ± 0.6
5 | AATGTTGTTGATGCAACCATAAAATGATAATTAATAATTATTTATAATCAGCAACTTAACCACAAAACAACCATAAGTTGATATTTTACAAAAGTTGGTATTCAACTATAAAATGTGAATCGAGTATTTCAGCAAAACTACTGCAGTAAGAA | -1.49 ± 1.9 | -2.24 ± 0.86
6 | AATGTTGTTGATGCAACCATAAAGTGATATTTAATAATTATTTATAATCAGCAACTTAACCACAAAACAACCATATATTGATCGAGACACCCCACCAACGCCTGGTCGCGGGGGTGTCCGATCTGATTTCAGCAAAACTACTGCAGTAAGAA | -2.14 ± 1.3 | -3.99 ± 1.6
7 | AATGTTGTTGATGCAACCATAAGTTGATATTTTATAATTATTTATAATCAGCAACTTAACCACAAAACACCCATAAATTGATATTGCACAAAAGTTGGTATTCAACTATAAAATGTGAATCGAGTATTTCAGCAAAACTACTGCAGTAAGAA | -1.01 ± 1.3 | -3.48 ± 1.3
8 | AATGTTGTTGATGCAACCATAAAGTGATATTTAATAATTATTTATAATCAGCAACTTAACCACAACAACCATATATTGATATCTCACAAAACAACCATAAGTTGATATTTTTGTGAATCGAGTATTTCAGCAAAACTACTGCAGTAAGAAAG | -2.53 ± 1.4 | -2.31 ± 0.76
9 | AATGTTGTTGATGCAACCATAAAGTGATATTTAATAATTATTTATAATCAGCAACTTAACCACAAAACAACCATATATTGATATCTCACAAAACAACCCGCCTGGTCGCGGGGGTGTCCGATCTGATTTCAGCAAAACTACTGCAGTAAGAA | -1.63 ± 2.3 | -2.27 ± 0.81
10 | AATGTTGTTGATGCAACCATAAAGTGATATTTAATAATTACAACCATATATTGATATCTCTTTATAATCAGCAACTTAACCACAAAAACAAAACAACCATAAGTTGATATTTTTGTGAATCGAGTATTTCAGCAAAACTACTGCAGTAAGAA | -2.04 ± 1.6 | -4.31 ± 0.99
11 | AATGTTGTTGATGCAACCATAAAGTGATATTTAATAGTACTGCGCGACTGAAATCATCATTAAAACGCAACCATATATTGATATCTCACAAAACAACCATAAGTTGATATTTTTGTGAATCGAGTATTTCAGCAAAACTACTGCAGTAAGAA | -3.4 ± 1.6 | -4.94 ± 0.88
12 | AATGTTGTTGATGCAACCATAAAGTGATATTTAATAATTATTTATAATCAGCACAGGCCAACACCCCACCAACGCGCGGTCGCGAGACACCCCACCAACGCCTGGTCGCGGGGGTGTCCGATCTGATTTCAGCAAAACTACTGCAGTAAGAA | -3.578 ± 0.033 | -7.2 ± 1.5
13 | TTTTGTGTTGATGCAACCATAAAGTGATAACAACGAATCAATTAAAATCATAGGCTTAATCGAAAAACAACCATATCTTGATATCGCATAAAACAACCATAAGTTGATATTTTGGTGAAAAGGATATTCCAACCTTCATAGTTTAGTAAGAA | -0.426 ± 0.46 | -0.528 ± 0.32
14 | AATGTTGTTGATGCAACCATAAAGTGATATTTAGGCAGTGAGCGCAACGCAATTCTTAACCACAAAACAACCATATATTGATATCTCACAAAACAACCATAAGTTGATATTTTTGTGAATCGAGTATTTCAGCAAAACTACTGCAGTAAGAA | -3.58 ± 0.71 | -4.22 ± 1.2
15 | AATGTTGTTGATGCAACCATAAAGTGATATTTAATAATTATTTATAATCAGCAACTTAAAACACCCCACCAACGCGCGGTCGCGAGACACCCCACCAACGCCTGGTCGCGGGGGTGTCCGATCTGATTTCAGCAAAACTACTGCAGTAAGAA | -3.63 ± 1.1 | -5.87 ± 1.1
16 | AATGTTGTTGATGCAACCATAAAGTGATATTTACGTCTGTACAGCGCACAGAAGCTGGGAACTCGGCCAACCATATATTGATATCTCACAAAACAACCATAAGTTGATATTTTTGTGAATCGAGTATTTCAGCAAAACTACTGCAGTAAGAA | -3.36 ± 2.2 | -3.56 ± 1.1

Row | Sequence | relative integration efficiency (log2) [1] | relative integration efficiency (log2) [2]
17 | AATGTTGTTGATGCAACCATAAAGTGATATTTATTGTGAGCGGATAACAATTGTGAGCGGATAACAACAACCATATATTGATATCTCACAAAACAACCATAAGTTGATATTTTTGTGAATCGAGTATTTCAGCAAAACTACTGCAGTAAGAA | -6.162 ± 0.037 | -6.71 ± 0.35
18 | AATGTTGTTGATGCAACCATAAAGTGATATTTAATACGGCGGGCGCCGACTACCAGGCCAACACCCCACCAACGCGCGGTCGCGAGACACCCCACCAACGCCTGGTCGCGGGGGTGTCCGATCTGATTTCAGCAAAACTACTGCAGTAAGAA | -4.75 ± 2 | -6.9 ± 1.3
19 | AATGTTGTTGATGCAACCATAAAGTGATATTTAATAATTATTTATCAACCATATATTGATATCTCAATCAGCAACTTAACCACAAAAACAAAACAACCATAAGTTGATATTTTTGTGAATCGAGTATTTCAGCAAAACTACTGCAGTAAGAA | -2.91 ± 2.7 | -4.61 ± 1.4
20 | AATGTTGTTGATGCAACCATAAAGTGATATTTAATAATTAGGGCGCCGACTACCAGGCCAACACCCCACCAACGCGCGGTCGCGAGACACCCCACCAACGCCTGGTCGCGGGGGTGTCCGATCTGATTTCAGCAAAACTACTGCAGTAAGAA | -4.57 ± 0.92 | -7.07 ± 0.66
21 | AATGTTGTTGATGCAACCATAAGTTGATATTTTATAATTATTTATAATCAGCAACTTAACCACAAAACAACCATAAGTTGATATTTTACAAAAGTTGGTATTCAACTATAAAATGTGAATCGAGTATTTCAGCAAAACTACTGCAGTAAGAA | -1.03 ± 2.3 | -3.19 ± 1.4
22 | AATGTTGTTGATGCAACCATAAAGTGATATTTAATAATTATTTATAATCAGCAACTTAACCACAAAACAACCATATATTGATATCTACAAAACAACCATAAGTTGATATTTTTGTGAATCGAGTATTTCAGCAAAACTACTGCAGTAAGAAA | -0.176 ± 0.54 | -1.23 ± 0.67
23 | AATGTTGTTGATGCAACCATAAAGTGATATTTAATAATTATTTATAATCAGCAACTTAACCACAAAACAACCATATATTGATATCTCACAAAACAACCATCCTGGTCGCGGGGGTGTCCGATCTGATTTCAGCAAAACTACTGCAGTAAGAA | -0.61 ± 0.64 | -1.99 ± 0.82
24 | AATGTTGTTGATGCAACCATAAAGTGATATTTAATAATTATTTATAATCAGCAACTTAACCACAAAACAACCATATATTGATATCTCACCCCCACCAACGCCTGGTCGCGGGGGTGTCCGATCTGATTTCAGCAAAACTACTGCAGTAAGAA | -1.5 ± 1.8 | -2.66 ± 0.95
25 | AATGTTGTTGATGCAACCAATTTCTGATATTTAATAATTATTTATAATCAGCAACTTAACCACAAAACAACCAATATATGATATCTCACAAAACAACCAATTCATGATATTTTTGTGAATCGAGTATTTCAGCAAAACTACTGCAGTAAGAA | -1.57 ± 0.77 | -2.5 ± 1.1
26 | AATGTTGTTGAAACAACCATAAAGTGATAACAACGAATCAATTAAAATCATAGGCTTAATCGAAAAACAACCATATCTTGATATCGCACAAAACAACCATAAGTTGATATTTTTGTGAATCGAGTATTTCAGCAAAACTACTGCAGTAAGAA | -0.526 ± 0.33 | -0.51 ± 0.3
27 | AATGTTGTTGATGCAACCATAAAGTGATATTTAATAACTTCGTATAAAGTATCCTATACGAAGTTATCAACCATATATTGATATCTCACAAAACAACCATAAGTTGATATTTTTGTGAATCGAGTATTTCAGCAAAACTACTGCAGTAAGAA | -2.99 ± 2.4 | -2.17 ± 0.99
28 | AATGTTGTTGAAACAACCATAAAGTGATAACAACGAATCAATTAAAATCATAGGCTTAATCGAAAAACAACCATATCTTGATATCGCATAAAACAACCATAAGTTGATATTTTGGTGAAAAGGATATTCCAACCTTCATAGTTTAGTAAGAA | 0.198 ± 0.12 | -0.201 ± 0.34
29 | AATGTTGTTGATGCAACCATAAAATGATAATTAATAATTATTTATAATCAGCAACTTAACCACAAAATAATTATCATTTTATGGTTGACAAAATAATTATCATTTTATGGTTGTGTGAATCGAGTATTTCAGCAAAACTACTGCAGTAAGAA | -0.969 ± 0.98 | -6.03 ± 2.2
30 | AATGTTGTTGATGCAACCATAAAGTGATATTTAATAATTATTTATAATCAGCAACTTAACCACAAAACAACCATATATTGATATCTCCAACCATAAGTTGATATTTTTGTGAATCGAGTATTTCAGCAAAACTACTGCAGTAAGAAAGTTAC | -1.44 ± 1.2 | -3.71 ± 1.5
31 | TTTTGTGTTGAAACAACCATAAAGTGATAACAACGAATCAATTAAAATCATAGGCTTAATCGAAAAACAACCATATCTTGATATCGCACAAAACAACCATAAGTTGATATTTTGGTGAAAAGGATATTCCAACCTTCATAGTTTAGTAAGAA | -0.749 ± 0.52 | -0.684 ± 0.39
